Test [1] addresses T1, Myc-CUL3 (Arabidopsis thaliana, UniProt Q9ZVH4 1-732).
T1 construct: also called AtCUL3A (AT1G26830); not shown: N-terminal Myc tag (pEG203)
T1 sequence (looked up): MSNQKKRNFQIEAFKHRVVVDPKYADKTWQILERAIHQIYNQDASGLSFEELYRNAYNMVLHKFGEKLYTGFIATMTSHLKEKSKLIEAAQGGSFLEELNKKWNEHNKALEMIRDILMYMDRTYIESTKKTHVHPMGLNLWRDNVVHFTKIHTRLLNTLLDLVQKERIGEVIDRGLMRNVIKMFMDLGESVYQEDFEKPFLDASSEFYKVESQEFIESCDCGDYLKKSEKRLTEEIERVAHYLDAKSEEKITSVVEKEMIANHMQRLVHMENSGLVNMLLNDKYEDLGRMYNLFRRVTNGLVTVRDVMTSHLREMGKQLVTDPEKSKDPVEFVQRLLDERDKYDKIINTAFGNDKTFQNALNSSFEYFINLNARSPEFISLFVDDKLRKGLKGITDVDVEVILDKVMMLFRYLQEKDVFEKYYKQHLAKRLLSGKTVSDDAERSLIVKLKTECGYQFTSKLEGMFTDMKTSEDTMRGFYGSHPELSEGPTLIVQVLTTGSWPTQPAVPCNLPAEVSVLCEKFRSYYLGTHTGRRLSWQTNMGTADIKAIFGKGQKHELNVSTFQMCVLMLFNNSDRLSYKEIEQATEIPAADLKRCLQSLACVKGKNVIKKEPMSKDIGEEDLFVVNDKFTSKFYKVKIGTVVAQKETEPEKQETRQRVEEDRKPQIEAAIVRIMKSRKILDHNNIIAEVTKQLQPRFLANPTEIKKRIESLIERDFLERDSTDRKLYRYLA
Put plainly: co-IP, N. benthamiana, 1 mM SA 5 hr.

The test system of test [2] is Psm ES4326/AvrRpt2-mediated cell death. Put plainly: Cell death (conductivity/electrolyte leakage, trypan blue) after Psm ES4326/AvrRpt2 inoculation. It is filed as in vivo, Arabidopsis thaliana. The conditions noted are these: transgenic plants expressing the mutant in npr1-2 background; 1 mM SA 24 hr before inoculation. The method, then:
Chemical treatment, pathogen infection and cell death assays. […] At 2 days, the bacterial colonies were scored.
Trypan blue staining. Leaves of three-week-old Arabidopsis infected with Psm ES4326/AvrRpt2 were sampled at 1 dpi, boiled in 95% ethanol until completely bleached, followed by boiling for 3 min in a 1:1 mixture of 95% ethanol and staining solution (10 ml lactic acid, 10 ml glycerol, 10 g phenol and 10 mg trypan blue, dissolved in 10 ml DDW). The leaves were then de-stained in 2.5 g/ml chloral hydrate solution and transferred to 70% glycerol for subsequent imaging.

The subject of test [3] is CUL3. The experiment in a line: Co-IP of Myc-CUL3 with HA-fused NPR1 or variants. To be noted: 1 mM SA for 5 hr. It is filed as binding, Arabidopsis thaliana. Here is the method:
(§1) Plant transformation: For plant transformations, the Agrobacterium tumefaciens strain GV3101 was transformed with plant binary vectors carrying the indicated transgenes. For stable expression in Arabidopsis, a floral dipping method was used. For transient expression in N benthamiana, the Agrobacterium carrying the indicated construct was cultured overnight at 28° C. in Luria-Bertani (LB) broth medium supplemented with appropriate antibiotics: spectinomycin (100 μg/ml), kanamycin (50 μg/ml), gentamycin (50 μg/ml), and rifampicin (25 μg/ml). The obtained culture was re-inoculated at 1:10 into fresh growth media with antibiotics and grown for another 4 hr. Cells were then spun down at 1,600 g for 10 min, and inoculum was prepared by resuspending cells to OD600 nm=1 in double distilled water (DDW) containing 200 μM acetosyringone (Sigma). Unless otherwise stated, for co-IP, co-localization, and BiFC assays in N. benthamiana, the proteins were co-expressed at 1:1 mixture of the relevant Agrobacteria inoculums. In all BiFC assays, the pair of YN/YC fusions was co-expressed together with free mCherry to mark the cytoplasm and nucleus, mCherry-NLS to mark the nucleus only, or mCherry-fused test proteins for co-localization analysis. The inoculum was pressure infiltrated into N. benthamiana leaves at the abaxial side using 1 ml syringe without the needle. Due to low overall levels of NPR1-GFP in transgenic plants, a transient expression assay in Arabidopsis seedlings was used to monitor NPR1-GFP subcellular localization after SA treatment (FIG. 2B). To limit the imaging time in this transient assay (2 hours), a higher baseline SA concentration had to be used. Seeds of WT (Col-0) Arabidopsis were germinated on solid half-strength Murashige and Skoog (1/2 MS) medium and grown for 4 days. Agrobacterium carrying the indicated constructs was grown overnight in LB medium supplemented with appropriate antibiotics. The obtained culture was re-inoculated at 1:10 into virulence induction medium [50.78 mM MES, 0.5% Glucose, 1.734 mM NaH2PO4, 5% of 20X-AB mix (373.9 mM NH4C1, 24.34 mM MgSO4, 40.23 mM KCl, 1.36 mM CaCl2 and 0.18 mM FeSO4·7H2O), 200 μM acetosyringone] supplemented with 25 μg/ml rifampicin and grown for another 24 hr at 28° C. to OD600=0.8 (inoculum). Seedlings were vacuum-infiltrated with the inoculum, and at 48 hpi (hours post inoculation), treatments were performed by submerging the transformed seedlings in water or SA solution at indicated concentrations for 2 hr. Entire cotyledons were sampled for microscopy.
Protein analysis and IP. Recombinant protein analysis was performed using transient expression in N. benthamiana, or stable over-expression in transgenic Arabidopsis, or expression in E. coli. Total protein extraction from plants was performed by homogenizing leaf tissue in the plant extraction buffer [50 mM Tris-HCl (pH 7.5), 150 mM NaCl, 5 mM EDTA, 0.2% Triton X-100, 0.2% Nonidet P-40] supplemented with 1 mM PMSF, 100 μM MG132, and EDTA-free protease inhibitor cocktail (Roche). For ubiquitinated protein analysis in plants, 100 μM of DUB (deubiquitinase) inhibitor (LifeSensors) and 10 mM NEM were added. Next, the lysates were cleared by centrifugation at 14,000 rpm for 15 min followed by filtering through a 0.2 μm filter. […] Pull-downs or IP experiments were done on total protein extracts by incubating protein samples in the lysis buffer overnight with indicated affinity tag or antibody conjugated to agarose or magnetic beads: GFP-trap agarose beads (Chromotek) for GFP fusions; RFP-trap agarose beads (Chromotek) for mCherry fusions; anti-HA magnetic beads (ThermoFisher) for HA tag fusions; anti-DYKDDDDK coupled magnetic agarose (ThermoFisher) for FLAG tag fusions; and glutathione magnetic agarose (ThermoFisher) for GST fusions. Unless otherwise indicated, after pull-down/IP, beads were washed 3 times and proteins were eluted by boiling in the 2×SDS sample buffer. […]

The test system of test [4] is cytoplasmic condensates (SINCs). The experiment in a line: Confocal imaging of localization and condensate (body) formation of GFP-fused NPR proteins and variants. Format: cell-based, Nicotiana benthamiana. To be noted: no SA treatment / mock. The method, then: as §1
Confocal laser scanning microscopy. Unless otherwise indicated, all imaging data and micrographs for single protein imaging, co-localizations, BiFC and time-lapse were obtained from the transient expression in N. benthamiana using the relevant Agrobacteria strains. All imaging was done with confocal laser scanning fluorescence microscopy using Zeiss 880 airyscan inverted confocal microscope with a 40×/1.2 water correction objective. GFP (eGFP) was excited with a 488 nm argon laser and emission was collected with a 505-530 nm band pass filter. YFP was excited with an argon laser using a 514 nm beam splitter, and emission was detected with a 520-555 nm band pass filter. mCherry was excited with a 561 nm diode laser, and emission was detected with a 575-615 nm band pass filter. When eGFP/YFP were imaged together with mCherry, a spectral GASP detector was used to collect emission from eGFP/YFP. Propidium iodide (PI) was excited with 488 nm argon laser and emission was detected with a 590-620 nm band pass filter. Time-lapse imaging was carried out on live leaf tissue samples from N. benthamiana plants transiently expressing the protein of interest. Image acquisition was done in 5 min intervals for the duration of 2 hr by scanning 30 consecutive focal planes along the Z-axis covering the entire thickness of an epidermal cell. Z-projection was done to each time frame stack before composing a final time-lapse file. […]

B1: rdr1-HA (other)
chain: MDTTIDGFADSYEISSTSFVATDNTDSSIVYLAAEQVLTGPDVSALQLLSNSFESVFDSPDDFYSDAKLVLSDGREVSFHRCVLSARSSFFKSALAAAKKEKDSNNTAAVKLELKEIAKDYEVGFDSVVTVLAYVYSSRVRPPPKGVSEAADENAAHVAARPAVDFMLEVLYLAFIFKIPELITLYQRHLLDVVDKVVIEDTLVILKLANICGKACMKLLDRCKEIIVKSNVDMVSLEKSLPEELVKEIIDRRKELGLEVPKVKKHVSNVHKALDSDDIELVKLLLKEDHTNLDDACALHFAVAYCNVKTATDLLKLDLADVNHRNPRGYTVLHVAAMRKEPQLILSLLEKGASASEATLEGRTALMIAKQATMAVECNNIPEQCKHSLKGRLCVEILEQEDKREQIPRDVPPSFAVAADELKMTLLDLENRVALAQRLFPTEAQAAMEIAEMKGTCEFIVTSLEPDRLTGTKRTSPGVKIAPFRILEEHQSRLKALSKTVELGKRFFPRCSAVLDQIMNCEDLTQLACGEDDTAEKRLQKKQRYMEIQETLKKAFSEDNLELGNSSLTDSTSSTSKSTGGKRSNRKLSHRRR
notes: not shown: C-terminal HA tag (pLN462)
Regarding B1, in test [1], the binding result was “binds”.

B2: rdr2: NPR1 with cysteine cluster of RDR2 mutated (C378/385/394A) (protein)
chain: MDTTIDGFADSYEISSTSFVATDNTDSSIVYLAAEQVLTGPDVSALQLLSNSFESVFDSPDDFYSDAKLVLSDGREVSFHRCVLSARSSFFKSALAAAKKEKDSNNTAAVKLELKEIAKDYEVGFDSVVTVLAYVYSSRVRPPPKGVSECADENCCHVACRPAVDFMLEVLYLAFIFKIPELITLYQRHLLDVVDKVVIEDTLVILKLANICGKACMKLLDRCKEIIVKSNVDMVSLEKSLPEELVKEIIDRRKELGLEVPKVKKHVSNVHKALDSDDIELVKLLLKEDHTNLDDACALHFAVAYCNVKTATDLLKLDLADVNHRNPRGYTVLHVAAMRKEPQLILSLLEKGASASEATLEGRTALMIAKQATMAVEANNIPEQAKHSLKGRLAVEILEQEDKREQIPRDVPPSFAVAADELKMTLLDLENRVALAQRLFPTEAQAAMEIAEMKGTCEFIVTSLEPDRLTGTKRTSPGVKIAPFRILEEHQSRLKALSKTVELGKRFFPRCSAVLDQIMNCEDLTQLACGEDDTAEKRLQKKQRYMEIQETLKKAFSEDNLELGNSSLTDSTSSTSKSTGGKRSNRKLSHRRR
modifications: A. thaliana npr1 rdr2 protein
With B2, the “protection against cell death induced by Psm ES4326/AvrRpt2 (SA-mediated survival phenotype)” value in test [2] is “stronger protection”. Moreover, in test [3], the “CUL3 pull-down signal in co-IP” value is “strong interactions with CUL3”. Further, the “condensate formation in the absence of SA (constitutive)” value in test [4] is “formed cytoplasmic condensates in the absence of SA treatment”.

B3: rdr1: NPR1 with cysteine cluster of RDR1 mutated (C150/155/156/160A) (protein)
chain: MDTTIDGFADSYEISSTSFVATDNTDSSIVYLAAEQVLTGPDVSALQLLSNSFESVFDSPDDFYSDAKLVLSDGREVSFHRCVLSARSSFFKSALAAAKKEKDSNNTAAVKLELKEIAKDYEVGFDSVVTVLAYVYSSRVRPPPKGVSEAADENAAHVAARPAVDFMLEVLYLAFIFKIPELITLYQRHLLDVVDKVVIEDTLVILKLANICGKACMKLLDRCKEIIVKSNVDMVSLEKSLPEELVKEIIDRRKELGLEVPKVKKHVSNVHKALDSDDIELVKLLLKEDHTNLDDACALHFAVAYCNVKTATDLLKLDLADVNHRNPRGYTVLHVAAMRKEPQLILSLLEKGASASEATLEGRTALMIAKQATMAVECNNIPEQCKHSLKGRLCVEILEQEDKREQIPRDVPPSFAVAADELKMTLLDLENRVALAQRLFPTEAQAAMEIAEMKGTCEFIVTSLEPDRLTGTKRTSPGVKIAPFRILEEHQSRLKALSKTVELGKRFFPRCSAVLDQIMNCEDLTQLACGEDDTAEKRLQKKQRYMEIQETLKKAFSEDNLELGNSSLTDSTSSTSKSTGGKRSNRKLSHRRR
modifications: A. thaliana npr1 rdr1 protein
With B3, the “protection against cell death induced by Psm ES4326/AvrRpt2 (SA-mediated survival phenotype)” value in test [2] was “no protection against cell death”. In addition, the “CUL3 pull-down signal in co-IP” value in test [3] was “strong interactions with CUL3”. Also, the “condensate formation in the absence of SA (constitutive)” value in test [4] is “formed cytoplasmic condensates in the absence of SA treatment”.

B4: rdr2-HA (other)
chain: MDTTIDGFADSYEISSTSFVATDNTDSSIVYLAAEQVLTGPDVSALQLLSNSFESVFDSPDDFYSDAKLVLSDGREVSFHRCVLSARSSFFKSALAAAKKEKDSNNTAAVKLELKEIAKDYEVGFDSVVTVLAYVYSSRVRPPPKGVSECADENCCHVACRPAVDFMLEVLYLAFIFKIPELITLYQRHLLDVVDKVVIEDTLVILKLANICGKACMKLLDRCKEIIVKSNVDMVSLEKSLPEELVKEIIDRRKELGLEVPKVKKHVSNVHKALDSDDIELVKLLLKEDHTNLDDACALHFAVAYCNVKTATDLLKLDLADVNHRNPRGYTVLHVAAMRKEPQLILSLLEKGASASEATLEGRTALMIAKQATMAVEANNIPEQAKHSLKGRLAVEILEQEDKREQIPRDVPPSFAVAADELKMTLLDLENRVALAQRLFPTEAQAAMEIAEMKGTCEFIVTSLEPDRLTGTKRTSPGVKIAPFRILEEHQSRLKALSKTVELGKRFFPRCSAVLDQIMNCEDLTQLACGEDDTAEKRLQKKQRYMEIQETLKKAFSEDNLELGNSSLTDSTSSTSKSTGGKRSNRKLSHRRR
notes: as for B1
As for B4, in test [1], the binding result is “binds”.

The values above are taken from patent publication US20230227838A1, “ENHANCED CELL SURVIVAL AGAINST BIOTIC AND ABIOTIC STRESSES THROUGH SALICYLICK ACID-INDUCED NPR1 CONDENSATES” (priority 2020, published 2023).
